Data on two substances can be found in PMC3237458, “PEGylation Potentiates the Effectiveness of an Antagonistic Peptide That Targets the EphB4 Receptor with Nanomolar Affinity” (PLoS ONE, 2011).

“And” between values parts separate entries of the source, which are not always exact repeats. Equal entries are not always repeated. “Also recorded” adds a separate entry of the source. Ends that are not written are not given here.

Data set [1] in a line: Peptide retention in mouse blood circulation. It is filed as in vivo. The settings on record: C57BL/6 mice, intravenous, serum ELISA, 3 mice, Figure 3C; for Circulation half-life (t1/2): 2.1 nmoles TNYL-RAW-Fc, 1.5 nmoles TNYL-RAW-streptavidin, 6 nmoles PEG-TNYL-RAW, non linear regression; for AUC: % of the injected dose•hours/ml. On the procedure:
2.1 nmoles TNYL-RAW-Fc, 1.5 nmoles TNYL-RAW-streptavidin and 6 nmoles PEG-TNYL-RAW, diluted in 150 µl sterile PBS, were administered to C57BL/6 mice by intravenous or intraperitoneal injection. Blood was collected from each mouse from the orbital sinus at two time points after injection and by cardiac puncture under Avertin anesthesia at a third time point. These experiments were carried out in accordance with the recommendations in the Guide for the Care and Use of Laboratory Animals of the National Institutes of Health. The protocol was approved by the Institutional Animal Care and Use Committee of the Sanford-Burnham Medical Research Institute (Animal Assurance Number: A-3053-1). After collection, the blood was […], and the serum was stored at −20°C. The different forms of TNYL-RAW in the serum were detected by using the same ELISA assays described above for measurements of binding affinity. The absorbance from wells incubated with mouse serum without TNYL-RAW was subtracted as the background and the concentration of TNYL-RAW in the blood was calculated based on a standard curve generated using serum containing known TNYL-RAW concentrations. The half-life of each peptide was estimated by using non linear regression and the program Prism (GraphPad Software Inc.). The area under the curve (AUC) was expressed as % ID•hours/ml (where ID is the initial dose of peptide injected) and calculated by dividing the AUC value obtained using the program Prism by the amount of injected peptide and multiplying by 100.
Background: In an ELISA, binding on a coated surface is turned into a signal by an enzyme label.

The next data set addresses T1, EphB4 (Homo sapiens, UniProt P54760).
T1 sequence (P54760 16-987): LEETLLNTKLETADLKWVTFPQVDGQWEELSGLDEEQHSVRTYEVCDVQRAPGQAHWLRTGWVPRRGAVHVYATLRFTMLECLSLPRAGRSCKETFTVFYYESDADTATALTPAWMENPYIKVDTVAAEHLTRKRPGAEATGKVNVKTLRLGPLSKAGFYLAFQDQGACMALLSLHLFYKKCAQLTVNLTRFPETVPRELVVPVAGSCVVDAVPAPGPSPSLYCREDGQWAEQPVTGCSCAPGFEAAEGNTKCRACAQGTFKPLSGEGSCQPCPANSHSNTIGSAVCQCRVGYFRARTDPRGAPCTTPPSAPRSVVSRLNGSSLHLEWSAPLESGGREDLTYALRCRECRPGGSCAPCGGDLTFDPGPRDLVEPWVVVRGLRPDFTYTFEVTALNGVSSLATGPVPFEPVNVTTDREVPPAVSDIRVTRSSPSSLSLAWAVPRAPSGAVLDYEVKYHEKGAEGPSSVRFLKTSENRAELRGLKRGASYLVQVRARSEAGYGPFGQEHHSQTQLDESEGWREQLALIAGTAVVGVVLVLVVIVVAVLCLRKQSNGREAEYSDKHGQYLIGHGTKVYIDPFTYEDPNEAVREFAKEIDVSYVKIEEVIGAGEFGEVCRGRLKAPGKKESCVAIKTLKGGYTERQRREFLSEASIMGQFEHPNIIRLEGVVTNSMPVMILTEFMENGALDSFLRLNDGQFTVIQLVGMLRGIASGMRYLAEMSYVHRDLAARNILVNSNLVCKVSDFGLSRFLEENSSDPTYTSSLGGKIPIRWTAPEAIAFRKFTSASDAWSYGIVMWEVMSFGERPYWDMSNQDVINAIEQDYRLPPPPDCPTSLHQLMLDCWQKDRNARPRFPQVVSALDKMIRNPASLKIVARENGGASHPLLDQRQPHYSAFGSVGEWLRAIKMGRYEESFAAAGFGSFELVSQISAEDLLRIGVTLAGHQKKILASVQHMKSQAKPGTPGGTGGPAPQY
Nature of the data set: EphB4 activation by multimeric peptide forms (unpublished data). Type of data set: cell-based.

Data set [2] in a line: Peptide stability in mouse serum ex vivo. Type of data set: in vitro ADME. The settings on record: undiluted mouse serum, 37°C, functional peptide by ELISA; Figures 1E, 3B.
Data set [3] in a line: Peptide stability in cell culture medium / conditioned medium (ELISA of functional peptide). It is filed as in vitro ADME. The settings on record: up to 48 hours; 25 nM peptide; medium diluted 1:10; functional peptide by ELISA; 6–9 measurements; Figure 3A. On the procedure:
PC3 prostate cancer cells were grown in RPMI 1640 medium (Mediatech, Inc, Herndon, VA) with 10% fetal bovine serum (FBS) (Hyclone, Logan, UT), penicillin and streptomycin. B16-F10-luc-G5 melanoma cells (Caliper Life Sciences, Hopkinton, MA) were grown in Eagle's MEM with Earle's Balanced Salts (EBSS) (Hyclone, Logan, UT) supplemented with 10% FBS, non essential amino acids (Hyclone, Logan, UT), L-glutamine, sodium pyruvate (Hyclone, Logan, UT), MEM vitamin solution (Life Technologies-Invitrogen), penicillin and streptomycin (Omega Scientific, Tarzana, CA). HUVECs (Cascade Biologics, Portland, OG) were grown in Medium 200 supplemented with low serum growth supplements (Cascade Biologics), 10% FBS, penicillin and streptomycin, and fungizone (Omega Scientific, Tarzana, CA). Rat EMCs were grown in DMEM (Mediatech, Inc, Herndon, VA) supplemented with 10% FBS, penicillin and streptomycin. The different modified forms of TNYL-RAW at a concentration of 25 nM were added to fresh medium or culture medium conditioned by the cells for 1–4 days. The culture medium was collected after different time periods and diluted 1∶10 in ELISA wells. The amount of intact TNYL-RAW peptide remaining was measured by using the ELISA assays described above for measurement of binding affinity. In some experiments, the peptide was incubated at 37°C with PC3 cell conditioned medium collected from the cells in the absence or in the presence of protease inhibitors (10 µg/ml aprotinin, 5 µg/ml pepstatin, 10 µg/ml leupeptin and 0.75 mM or phenylmethylsulfonylfluoride (PMSF)).

“TNYL-RAW-Fc: TNYL-RAW fused through a GSGSK linker to the Fc portion of human IgG1, from HEK 293 cells (TNYLFSPNGPIARAWGSGSK-{Fc (human IgG1)}; also: dimer)”: in data set [1], the “Circulation half-life (t1/2)” value is ~1 h and 0.8 h; the AUC amounted to 140 % ID-h/ml. Besides, the “Activation of EphB4” value with EphB4 was “unable to detectably activate EphB4”. Further, in data set [2], the “Stability in mouse serum ex vivo” value is “much decreased degradation; also recorded: not as stable in mouse serum as the streptavidin-bound or PEGylated peptide”. Further, the “Degradation in PC3 cell conditioned medium” value in data set [3] is “absence of peptide degradation”.
For the substance “TNYL-RAW-streptavidin: biotinylated TNYL-RAW in complex with streptavidin at molar ratio 4:1”, in data set [1], the “Circulation half-life (t1/2)” value is ~1 h and 1.3 h; the AUC came out at 110 % ID-h/ml. Also, the “Activation of EphB4” value in the data set with EphB4 is given as “unable to detectably activate EphB4”. Also, in data set [2], the “Stability in mouse serum ex vivo” value is “much decreased degradation”. For the same substance, the “Degradation in PC3 cell conditioned medium” value in data set [3] is on record as “absence of peptide degradation”.
